Legend:
[1] = system: IL-6 trans-signaling; conditions: exogenous administration, mouse model of CAC; cited from earlier work
[2] = system: DSS-induced colitis; test: Oral recombinant IL-6 during DSS-induced colitis in EGFR mutant mice; assay type: in vivo, mouse; conditions: for DSS-induced weight loss: IL-6 orally during DSS, FIG. 17B; for epithelial proliferation during colitis (BrdU): FIGS. 18A, 26A
Protocol: Colitis was induced by administering 2.5% dextran sulfate sodium salt (DSS) (MP Biomedicals, 0216011080) in autoclaved drinking water for 5 d followed by 5 d of normal water (Chalaris, A. et al., 2010). Colon tumors in mice were induced as previously described (Wirtz, S. et al., 2007; Tanaka, T. et al., 2003). Briefly, mice were injected i.p. with 7.5 mg/kg azoxymethane (AOM) (Sigma-Aldrich, A5486) followed by repeated administration of DSS. 300 U recombinant mouse IL-6 (ImmunoTools GmbH, Germany) was administered by oral gavage.
Mice were injected with 10 mg/kg BrdU 2.5 hrs prior to sacrifice. The colons were extracted, flushed with ice cold PBS to remove feces, fixed overnight at 4° C. in neutral buffered 4% formaldehyde as “Swiss Rolls”, which were further dehydrated, embedded in paraffin and sectioned. Sections were stained with Haematoxylin and Eosin (Sigma), Alcian blue, Giemsa and PAS. Colitis severity and tumor stage were scored and graded by pathologists in a blinded manner according to previously described criteria (Dube, P. E. et al., 2012; Musteanu, M. et al., 2010). For immunohistochemistry, sections were dewaxed, rehydrated and boiled in Citrate buffer pH 6.1 (S1699, Dakocytomation, Glostrup, Denmark) for antigen recovery. Endogenous peroxidase was quenched by incubation with 3% H2O2 in TBS, followed by blocking with 10% goat serum in 2% BSA in TBS—0.1% Tween. Sections were then incubated overnight with antibodies against β-catenin (Cell Signaling, Danvers, Mass.; 9582), cleaved caspase 3 (Cell Signaling; 9661), lysozyme (Dako; A0099), EGFR (sc-03, Santa Cruz Biotechnology, Santa Cruz, Calif.), pTyr705-STAT3 (9145, Cell Signaling), survivin (Cell Signaling; 2808) and synaptophysin (GTX100865, GeneTex Irvine, Calif.), respectively. All sections were further treated with SignalStain® Boost (Cell Signaling; 8114) to detect bound antibody and with liquid3-Amino-9-Ethylcarbazole Chromogen/Substrate (BP 1108, ID LABS™ ON, Canada) for peroxidase staining and counterstained with Haematoxylin (HHS32, Sigma-Aldrich). For BrdU staining, sections were treated with 2 N HCl after antigen recovery, blocked as described above and incubated with anti-BrdU antibody (347580, BD Biosciences) and further with secondary antibody (Invitrogen A-11018) and counterstained with DAPI.
Intestinal barrier permeability was assessed as previously described (Chalaris, A. et al., 2010). Briefly, mice were orally gavaged with 60 mg/kg FITC-Dextran (Sigma FD4), food and water were withdrawn 4 h prior to gavage. FITC levels were determined in the serum 4 h post gavage by absorption at 488 nm using standard dilutions of FITC-Dextran as reference.

Molecule | colitis and tumor development [1] | DSS-induced weight loss ([2]; Egfr^wa2/wa2 mice) | epithelial proliferation during colitis (BrdU) ([2]; Egfr^wa2/wa2 mice) | apoptosis (cleaved Caspase 3) ([2]; Egfr^ΔIEC mice) | apoptosis (cleaved Caspase 3) ([2]; Egfr^ΔMYL and Egfr^wa2/wa2 mice, FIGS. 18B, 26B) | pY-STAT3 nuclear localization in crypts ([2]; Egfr^ΔMYL mice during DSS treatment, FIGS. 18C, 18D) | DSS-induced weight loss ([2]; Egfr^ΔMYL mice) | number of ulcers ([2]; Egfr^ΔMYL mice, FIG. 17D) | loss of epithelial barrier function (FITC-dextran in serum) ([2]; Egfr^ΔMYL mice, FIG. 17E) | epithelial proliferation during colitis (BrdU) ([2]; Egfr^ΔMYL mice)
gp130: glycoprotein-130, exogenously administered to inhibit IL-6 trans-signaling (protein, UniProt P40189 23-918, looked up) Interleukin-6 receptor …: ELLDPCGYISPESPVVQLHSNFTAVCVLKEKCMDYFHVNANYIVWKTNHFTIPKEQYTIINRTASSVTFTDIASLNIQLTCNILTFGQLEQNVYGITIISGLPPEKPKNLSCIVNEGKKMRCEWDGGRETHLETNFTLKSEWATHKFADCKAKRDTPTSCTVDYSTVYFVNIEVWVEAENALGKVTSDHINFDPVYKVKPNPPHNLSVINSEELSSILKLTWTNPSIKSVIILKYNIQYRTKDASTWSQIPPEDTASTRSSFTVQDLKPFTEYVFRIRCMKEDGKGYWSDWSEEASGITYEDRPSKAPSFWYKIDPSHTQGYRTVQLVWKTLPPFEANGKILDYEVTLTRWKSHLQNYTVNATKLTVNLTNDRYLATLTVRNLVGKSDAAVLTIPACDFQATHPVMDLKAFPKDNMLWVEWTTPRESVKKYILEWCVLSDKAPCITDWQQEDGTVHRTYLRGNLAESKCYLITVTPVYADGPGSPESIKAYLKQAPPSKGPTVRTKKVGKNEAVLEWDQLPVDVQNGFIRNYTIFYRTIIGNETAVNVDSSHTEYTLSSLTSDTLYMVRMAAYTDEGGKDGPEFTFTTPKFAQGEIEAIVVPVCLAFLLTTLLGVLFCFNKRDLIKKHIWPNVPDPSKSHIAQWSPHTPPRHNFNSKDQMYSDGNFTDVSVVEIEANDKKPFPEDLKSLDLFKKEKINTEGHSSGIGGSSCMSSSRPSISSSDENESSQNTSSTVQYSTVVHSGYRHQVPSVQVFSRSESTQPLLDSEERPEDLQLVDHVDGGDGILPRQQYFKQNCSQHESSPDISHFERSKQVSSVNEEDFVRLKQQISDHISQSCGSGQMKMFQEVSAADAFGPGTEGQVERFETVGMEAATDEGMPKSYLPQTVRQGGYMPQ | substantial decrease |  |  |  |  |  |  |  |  | 
IL-6: recombinant mouse IL-6 administered by oral gavage (protein, UniProt P08505 25-211, looked up) Interleukin-6: FPTSQVRRGDFTEDTTPNRPVYTTSQVGGLITHVLWEIVEMRKELCNGNSDCMNNDDALAENNLKLPEIQRNDGCYQTGYNQEICLLKISSGLLEYHSYLEYMKNNLKDNKKDKARVLQRDTETLIHIFNQEVKDLHKIVLPTPISNALLTDKLESQKEWLRTKTIQFILKSLEEFLKVTLRSTRQT |  | partially rescued | partially | decreased | not affected | fully restored | able to protect | decreased | protected | fully
